Assay results as given in patent publication US20230303649A1 (published 2023).

T1: IL-2R on human primary T cells (human, UniProt P01589 22-272; P14784 27-551; P31785 23-369)
T1 sequence (looked up) 1: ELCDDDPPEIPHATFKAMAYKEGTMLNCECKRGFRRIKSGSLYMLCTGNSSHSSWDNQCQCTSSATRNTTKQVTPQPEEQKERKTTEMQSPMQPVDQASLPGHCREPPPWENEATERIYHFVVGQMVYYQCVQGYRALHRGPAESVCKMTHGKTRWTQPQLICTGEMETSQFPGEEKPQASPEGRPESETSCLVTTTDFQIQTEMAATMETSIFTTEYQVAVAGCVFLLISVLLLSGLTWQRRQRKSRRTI
T1 sequence (looked up) 2: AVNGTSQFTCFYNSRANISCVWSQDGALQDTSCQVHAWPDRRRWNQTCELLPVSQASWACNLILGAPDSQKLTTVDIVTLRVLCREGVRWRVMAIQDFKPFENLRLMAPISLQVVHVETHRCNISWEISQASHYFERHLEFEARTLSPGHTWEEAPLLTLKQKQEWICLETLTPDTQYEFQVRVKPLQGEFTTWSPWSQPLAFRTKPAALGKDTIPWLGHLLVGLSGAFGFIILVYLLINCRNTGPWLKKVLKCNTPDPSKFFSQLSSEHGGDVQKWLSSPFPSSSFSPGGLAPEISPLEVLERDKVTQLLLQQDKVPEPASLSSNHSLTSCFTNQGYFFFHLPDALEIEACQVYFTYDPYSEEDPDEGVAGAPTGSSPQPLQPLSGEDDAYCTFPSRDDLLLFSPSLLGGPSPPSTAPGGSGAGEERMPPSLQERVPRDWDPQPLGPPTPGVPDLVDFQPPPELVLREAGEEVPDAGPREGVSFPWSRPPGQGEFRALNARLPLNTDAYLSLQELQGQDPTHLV
T1 sequence (looked up) 3: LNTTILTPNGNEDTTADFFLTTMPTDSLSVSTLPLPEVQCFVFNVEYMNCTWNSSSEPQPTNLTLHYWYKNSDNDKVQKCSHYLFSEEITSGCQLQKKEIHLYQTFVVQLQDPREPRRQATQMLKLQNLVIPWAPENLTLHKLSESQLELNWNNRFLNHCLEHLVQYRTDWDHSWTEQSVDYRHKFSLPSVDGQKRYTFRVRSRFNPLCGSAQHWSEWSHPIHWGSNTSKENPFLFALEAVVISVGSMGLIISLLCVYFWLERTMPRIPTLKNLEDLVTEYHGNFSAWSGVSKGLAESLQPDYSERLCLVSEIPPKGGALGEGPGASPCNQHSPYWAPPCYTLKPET

B1: SEQ ID NO 11 (ligand)
chain: APTSSSTKKTQLQLEHLRLDLEMILNGINNYKNPKLTRMLTFKFYMPKKATELKHLQCLEEELKPLEEVLNLAQSKNFHLRPRDLISNINVIVLELKGSETTFMCEYADETATIVEFLNRWITFSTSIISTLT
B2: SEQ ID NO 35 (ligand)
chain: APTSSSTKKTQLQLEHLLLDLQMILNGINNHKNPKLTRMLTFKFYMPKKATELKHLQCLEEELKPLEEVLNLAPSKNFHLRPRDLISDINVIVLELKGSETTFMCEYADETATIVEFLNRWITFSQSIISTLT
B3: SEQ ID NO 15 (ligand)
chain: APTSSSTKKTQLQLEHLLLDLQMILNGINNHKNPRLTRMLTFKFYMPKKATELKHLQCLEEELKPLEEVLRLAPSKNFHLRPRDLISNINVIVLELKGSETTFMCEYADETATIVEFLNRWITFSQSIISTLT
B4: SEQ ID NO 16 (ligand)
chain: APTSSSTKKTQLQLEHLRLDLEMILNGINNYKNPKLTRMLTFKFYMPKKATELKHLQCLEEELKPLEEVLNLAQSKNFHFDPRDVVSNINVFVLELKGSETTFMCEYADETATIVEFLNRWITFSQSIISTLT
B5: SEQ ID NO 18 (ligand)
chain: APTSSSTKKTQLQLEHLLLDLQMILNGINNYKNPKLTRMLTFKFYMPKKATELKHLQCLEEELKPLEEVLNLAQSKNFHFDPRDVVSNINVFVLELKGSETTFMCEYADETATIVEFLNRWITFSQSIISTLT
B6: SEQ ID NO 14 (ligand)
chain: APTSSSTKKTQLQLEHLLLDLQMILNGINNHKNPRLTRMLTFKFYMPKKATELKHLQCLEEELKPLEEVLNLAPSKNFHLRPRDLISNINVIVLELKGSETTFMCEYADETATIVEFLNRWITFSQSIISTLT
B7: SEQ ID NO 17 (ligand)
chain: APTSSSTKKTQLQLEHLRLDLQMILNGINNYKNPKLTRMLTFKFYMPKKATELKHLQCLEEELKPLEEVLNLAQSKNFHFDPRDVVSNINVFVLELKGSETTFMCEYADETATIVEFLNRWITFSTSIISTLT
B8: SEQ ID NO 13 (ligand)
chain: APTSSSTKKTQLQLEHLLLDLQMILNGINNHKNPRLTRMLTFKFYMPKKATELKHLQCLEEELKPLEEALRLAPSKNFHLRPRDLISDINVIVLELKGSETTFMCEYADETATIVEFLNRWITFSQSIISTLT
B9: SEQ ID NO 12 (ligand)
chain: APTSSSTKKTQLQLEHLRLDLEMILNGINNYKNPKLTRMLTFKFYMPKKATELKHLQCLEEELKPLEEVLNLAQSKNFHFDPRDVVSDINVFVLELKGSETTFMCEYADETATIVEFLNRWITFSTSIISTLT
B10: SEQ ID NO 23 (ligand)
chain: APTSSSTKKTQLQLEHLLLDLQMILNGINNHKNPKLTRMLTFKFYMPKKATELKHLQCLEEELKPLEEVLRLAQSKNFHLRPRDLISDINVIVLELKGSETTFMCEYADETATIVEFLNRWITFSQSIISTLT
B11: SEQ ID NO 24 (ligand)
chain: APTSSSTKKTQLQLEHLLLDLQMILNGINNHKNPKLTRMLTFKFYMPKKATELKHLQCLEEELKPLEEVLRLAQSKNFHLRPRDLISDINVIVLELKGSETTFMCEYADETATIVEFLNRWITFSTSIISTLT
B12: SEQ ID NO 21 (ligand)
chain: APTSSSTKKTQLQLEHLLLDLQMILNGINNHKNPKLTRMLTFKFYMPKKATELKHLQCLEEELKPLEEALNLAPSKNFHLRPRDLISNINVIVLELKGSETTFMCEYADETATIVEFLNRWITFSQSIISTLT
B13: SEQ ID NO 9 (ligand)
chain: APTSSSTKKTQLQLEHLLLDLQMILNGINNHKNPRLTRMLTFKFYMPKKATELKHLQCLEEELKPLEEALRLAPSKNFHLRPRDLISNINVIVLELKGSETTFMCEYADETATIVEFLNRWITFSQSIISTLT
B14: SEQ ID NO 34 (ligand)
chain: APTSSSTKKTQLQLEHLLLDLQMILNGINNHKNPKLTRMLTFKFYMPKKATELKHLQCLEEELKPLEEVLNLAQSKNFHLRPRDLISDINVIVLELKGSETTFMCEYADETATIVEFLNRWITFSQSIISTLT
B15: SEQ ID NO 36 (ligand)
chain: APTSSSTKKTQLQLEHLLLDLQMILNGINNHKNPKLTRMLTFKFYMPKKATELKHLQCLEEELKPLEEALNLAQSKNFHLRPRDLISDINVIVLELKGSETTFMCEYADETATIVEFLNRWITFSQSIISTLT
B16: SEQ ID NO 37 (ligand)
chain: APTSSSTKKTQLQLEHLLLDLQMILNGINNHKNPKLTRMLTFKFYMPKKATELKHLQCLEEELKPLEEALRLAPSKNFHLRPRDLISDINVIVLELKGSETTFMCEYADETATIVEFLNRWITFSQSIISTLT
B17: SEQ ID NO 38 (ligand)
chain: APTSSSTKKTQLQLEHLLLDLQMILNGINNYKNPKLTRMLTFKFYMPKKATELKHLQCLEEELKPLEEALRLAPSKNFHLRPRDLISDINVIVLELKGSETTFMCEYADETATIVEFLNRWITFSQSIISTLT
B18: SEQ ID NO 39 (ligand)
chain: APTSSSTKKTQLQLEHLLLDLQMILNGINNYKNPKLTRMLTFKFYMPKKATELKHLQCLEEELKPLEEVLRLAQSKNFHLRPRDLISDINVIVLELKGSETTFMCEYADETATIVEFLNRWITFSQSIISTLT
B19: SEQ ID NO 20 (ligand)
chain: APTSSSTKKTQLQLEHLLLDLQMILNGINNHKNPKLTRMLTFKFYMPKKATELKHLQCLEEELKPLEEALRLAPSKNFHLRPRDLISNINVIVLELKGSETTFMCEYADETATIVEFLNRWITFSQSIISTLT

Each binder was assayed against T1, IL-2R on human primary T cells (assay: cell-based or functional assay).

Point of comparison: B8, “CD8 EC50 (nM), STAT5 phosphorylation” value 8650 nM. Against it:
- B1 — 13-fold lower, 650 nM
- B2 — within 1.5-fold, 10000 nM
- B3 — 300-fold lower, 28.4 nM
- B4 — 5100-fold lower, 1.68 nM
- B5 — 370-fold lower, 23.5 nM
- B6 — 23-fold lower, 372 nM
- B7 — within 1.5-fold, 10000 nM
- B9 — 13-fold lower, 650 nM
- B10 — 4.8-fold lower, 1820 nM
- B11 — within 1.5-fold, 10000 nM
- B12 — 57-fold lower, 151 nM
- B13 — 15-fold lower, 589 nM
- B14 — 8.7-fold lower, 1000 nM
- B15 — within 1.5-fold, 10000 nM
- B16 — within 1.5-fold, 10000 nM
- B17 — within 1.5-fold, 10000 nM
- B18 — within 1.5-fold, 10000 nM
- B19 — 38-fold lower, 227 nM

Point of comparison: B19, “Treg EC50 (nM), STAT5 phosphorylation” value 0.03 nM. Against it:
- B1 — 130-fold higher, 3.96 nM
- B2 — 520-fold higher, 15.7 nM
- B3 — 3-fold lower, 0.01 nM
- B4 — the same, 0.03 nM
- B5 — 2.7-fold higher, 0.08 nM
- B6 — 9.7-fold higher, 0.29 nM
- B7 — 33000-fold higher, 1000 nM
- B8 — 22-fold higher, 0.65 nM
- B9 — 6700-fold higher, 200 nM
- B10 — 16-fold higher, 0.49 nM
- B11 — 610-fold higher, 18.3 nM
- B12 — 2.3-fold higher, 0.07 nM
- B13 — 1.7-fold higher, 0.05 nM
- B14 — 81-fold higher, 2.44 nM
- B15 — 390-fold higher, 11.7 nM
- B16 — 37-fold higher, 1.11 nM
- B17 — 13-fold higher, 0.4 nM
- B18 — 3100-fold higher, 91.9 nM

Point of comparison: B14, “CD4 conv EC50 (nM), STAT5 phosphorylation” value 1000 nM. Against it:
- B2 — 7-fold higher, 7000 nM
- B3 — 400-fold lower, 2.52 nM
- B4 — 760-fold lower, 1.31 nM
- B5 — 63-fold lower, 15.9 nM
- B6 — 34-fold lower, 29.1 nM
- B7 — the same, 1000 nM
- B8 — 4.2-fold higher, 4160 nM
- B10 — the same, 1000 nM
- B11 — 4-fold higher, 4000 nM
- B12 — 210-fold lower, 4.81 nM
- B13 — 470-fold lower, 2.14 nM
- B15 — 4-fold higher, 4000 nM
- B16 — 5.5-fold higher, 5500 nM
- B17 — 8.9-fold higher, 8880 nM
- B18 — 5.5-fold higher, 5500 nM
- B19 — 830-fold lower, 1.2 nM

Point of comparison: B12, “CD8 naïve EC50 (nM), STAT5 phosphorylation” value 204 nM. Against it:
- B2 — 49-fold higher, 10000 nM
- B3 — 6.8-fold lower, 29.8 nM
- B4 — 110-fold lower, 1.81 nM
- B5 — 9.7-fold lower, 21.1 nM
- B6 — 2.2-fold higher, 444 nM
- B7 — 49-fold higher, 10000 nM
- B8 — 41-fold higher, 8410 nM
- B10 — 9.2-fold higher, 1880 nM
- B11 — 49-fold higher, 10000 nM
- B13 — 4-fold higher, 822 nM
- B14 — 4.9-fold higher, 1000 nM
- B15 — 49-fold higher, 10000 nM
- B16 — 49-fold higher, 10000 nM
- B17 — 49-fold higher, 10000 nM
- B18 — 49-fold higher, 10000 nM
- B19 — 1.5-fold higher, 312 nM
